Experimental data taken from publication PMC4609290.

Biological target: H3(15-34) peptide (UniProt P68431)
Assay: ITC

With “AF10PZP (as used for ITC) (from UniProt P55197-1 1-208) (domain or fragment)” the Kd was 5 µM.
